Assay results from US20170210818A1 (CALIFORNIA INSTITUTE FOR BIOMEDICAL RESEARCH, published 2017).

Molecular target: T1, CD19 on Nalm-6 cells (UniProt P15391 20-556, limits assumed)
T1 construct: whole, on cells; also called Nalm-6 cells (CD19 positive cells)
T1 sequence (looked up): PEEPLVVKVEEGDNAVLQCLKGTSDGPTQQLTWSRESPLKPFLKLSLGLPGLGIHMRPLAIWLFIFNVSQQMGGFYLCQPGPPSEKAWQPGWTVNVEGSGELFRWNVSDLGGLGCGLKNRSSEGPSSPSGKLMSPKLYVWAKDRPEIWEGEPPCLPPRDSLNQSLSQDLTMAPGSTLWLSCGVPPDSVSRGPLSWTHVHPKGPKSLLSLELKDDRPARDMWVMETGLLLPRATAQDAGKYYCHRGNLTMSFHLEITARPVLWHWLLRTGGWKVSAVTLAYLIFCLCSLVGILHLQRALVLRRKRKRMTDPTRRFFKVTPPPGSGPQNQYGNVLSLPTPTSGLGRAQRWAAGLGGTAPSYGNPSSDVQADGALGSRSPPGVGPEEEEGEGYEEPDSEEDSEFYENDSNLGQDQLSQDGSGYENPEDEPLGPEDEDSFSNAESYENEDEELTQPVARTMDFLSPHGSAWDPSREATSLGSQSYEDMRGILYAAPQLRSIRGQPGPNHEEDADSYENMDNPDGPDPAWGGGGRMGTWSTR
Assay: flow cytometry on Nalm-6 cells, 10 nM, fluorescent anti-human IgG secondary antibody
Protocol: Nalm-6 and K562 cells were cultured according to vendor's protocol. Cells were centrifuged and blocked in 1× PBS with 10% FBS at 4° C. for 1 hour. […] The cell suspensions were shaken for 1 hour at 4° C. The cells were washed 3 times with PBS. The cells were incubated with a secondary antibody (e.g., Fluorescein-anti-human IgG or A488-anti-hIgG) at 4° C. for 1 hour. The cells were washed 3 times with PBS and resuspended in PBS. The cellular fluorescence distribution was determined by flow cytometry.

B1: anti-CD19ScFv-UCHT1-CL(Fab) (bispecific antibody)
heavy: EVQLQQSGPELVKPGASMKISCKASGYSFTGYTMNWVKQSHGKNLEWMGLINPYKGVSTYNQKFKDKATLTVDKSSSTAYMELLSLTSEDSAVYYCARSGYYGDSDWYFDVWGQGTTLTVFSASTKGPSVFPLAPSSKSTSGGTAALGCLVKDYFPEPVTVSWNSGALTSGVHTFPAVLQSSGLYSLSSVVTVPSSSLGTQTYICNVNHKPSNTKVDKKVEPKSC
light: DIQMTQTTSSLSASLGDRVTISCRASQDIRNYLNWYQQKPDGTVKLLIYYTSRLHSGVPSKFSGSGSGTDYSLTISNLEQEDIATYFCQQGNTLPWTFAGGTKLEIKRTVAAPSVFIFPPSDEQLKSGTASVVCLLNNFYPREAKVQWKVDNALQSGNSQESVTEQDSGGGGSGGGGSGGGGSEVKLQESGPGLVAPSQSLSVTCTVSGVSLPDYGVSWIRQPPRKGLEWLGVIWGSETTYYNSALKSRLTIIKDNSKSQVFLKMNSLQTDDTAIYYCAKHYYYGGSYAMDYWGQGTSVTVSSGGGGSGGGGSGGGGSDIQMTQTTSSLSASLGDRVTISCRASQDISKYLNWYQQKPDGTVKLLIYHTSRLHSGVPSRFSGSGSGTDYSLTISNLEQEDIATYFCQQGNTLPYTFGGGTKLEIGGGGSDSTYSLSSTLTLSKADYEKHKVYACEVTHQGLSSPVTKSFNRGEC
  binding result: binds
